Assay results taken from IntAct's records for PubMed 21300063.

B1: Alsin (Homo sapiens), Q96Q42 (parent)
chain: MDSKKRSSTEAEGSKERGLVHIWQAGSFPITPERLPGWGGKTVLQAALGVKHGVLLTEDGEVYSFGTLPWRSGPVEICPSSPILENALVGQYVITVATGSFHSGAVTDNGVAYMWGENSAGQCAVANQQYVPEPNPVSIADSEASPLLAVRILQLACGEEHTLALSISREIWAWGTGCQLGLITTAFPVTKPQKVEHLAGRVVLQVACGAFHSLALVQCLPSQDLKPVPERCNQCSQLLITMTDKEDHVIISDSHCCPLGVTLTESQAENHASTALSPSTETLDRQEEVFENTLVANDQSVATELNAVSAQITSSDAMSSQQNVMGTTEISSARNIPSYPDTQAVNEYLRKLSDHSVREDSEHGEKPVPSQPLLEEAIPNLHSPPTTSTSALNSLVVSCASAVGVRVAATYEAGALSLKKVMNFYSTTPCETGAQAGSSAIGPEGLKDSREEQVKQESMQGKKSSSLVDIREEETEGGSRRLSLPGLLSQVSPRLLRKAARVKTRTVVLTPTYSGEADALLPSLRTEVWTWGKGKEGQLGHGDVLPRLQPLCVKCLDGKEVIHLEAGGYHSLALTAKSQVYSWGSNTFGQLGHSDFPTTVPRLAKISSENGVWSIAAGRDYSLFLVDTEDFQPGLYYSGRQDPTEGDNLPENHSGSKTPVLLSCSKLGYISRVTAGKDSYLALVDKNIMGYIASLHELATTERRFYSKLSDIKSQILRPLLSLENLGTTTTVQLLQEVASRFSKLCYLIGQHGASLSSFLHGVKEARSLVILKHSSLFLDSYTEYCTSITNFLVMGGFQLLAKPAIDFLNKNQELLQDLSEVNDENTQLMEILNTLFFLPIRRLHNYAKVLLKLATCFEVASPEYQKLQDSSSCYECLALHLGRKRKEAEYTLGFWKTFPGKMTDSLRKPERRLLCESSNRALSLQHAGRFSVNWFILFNDALVHAQFSTHHVFPLATLWAEPLSEEAGGVNGLKITTPEEQFTLISSTPQEKTKWLRAISQAVDQALRGMSDLPPYGSGSSVQRQEPPISRSAKYTFYKDPRLKDATYDGRWLSGKPHGRGVLKWPDGKMYSGMFRNGLEDGYGEYRIPNKAMNKEDHYVGHWKEGKMCGQGVYSYASGEVFEGCFQDNMRHGHGLLRSGKLTSSSPSMFIGQWVMDKKAGYGVFDDITRGEKYMGMWQDDVCQGNGVVVTQFGLYYEGNFHLNKMMGNGVLLSEDDTIYEGEFSDDWTLSGKGTLTMPNGDYIEGYFSGEWGSGIKITGTYFKPSLYESDKDRPKVFRKLGNLAVPADEKWKAVFDECWRQLGCEGPGQGEVWKAWDNIAVALTTSRRQHRDSPEILSRSQTQTLESLEFIPQHVGAFSVEKYDDIRKYLIKACDTPLHPLGRLVETLVAVYRMTYVGVGANRRLLQEAVKEIKSYLKRIFQLVRFLFPELPEEGSTIPLSAPLPTERKSFCTGKSDSRSESPEPGYVVTSSGLLLPVLLPRLYPPLFMLYALDNDREEDIYWECVLRLNKQPDIALLGFLGVQRKFWPATLSILGESKKVLPTTKDACFASAVECLQQISTTFTPSDKLKVIQQTFEEISQSVLASLHEDFLWSMDDLFPVFLYVVLRARIRNLGSEVHLIEDLMDPYLQHGEQGIMFTTLKACYYQIQREKLN

Variants of: B1
Conditions: with rab5a_human RAB5A

Variant	effect of a mutation on the interaction
G540E	increasing interaction

Variants of: B1
Conditions: with eea1_human EEA1, Q15075
Sequence of eea1_human EEA1, Q15075 (Q15075 whole entry): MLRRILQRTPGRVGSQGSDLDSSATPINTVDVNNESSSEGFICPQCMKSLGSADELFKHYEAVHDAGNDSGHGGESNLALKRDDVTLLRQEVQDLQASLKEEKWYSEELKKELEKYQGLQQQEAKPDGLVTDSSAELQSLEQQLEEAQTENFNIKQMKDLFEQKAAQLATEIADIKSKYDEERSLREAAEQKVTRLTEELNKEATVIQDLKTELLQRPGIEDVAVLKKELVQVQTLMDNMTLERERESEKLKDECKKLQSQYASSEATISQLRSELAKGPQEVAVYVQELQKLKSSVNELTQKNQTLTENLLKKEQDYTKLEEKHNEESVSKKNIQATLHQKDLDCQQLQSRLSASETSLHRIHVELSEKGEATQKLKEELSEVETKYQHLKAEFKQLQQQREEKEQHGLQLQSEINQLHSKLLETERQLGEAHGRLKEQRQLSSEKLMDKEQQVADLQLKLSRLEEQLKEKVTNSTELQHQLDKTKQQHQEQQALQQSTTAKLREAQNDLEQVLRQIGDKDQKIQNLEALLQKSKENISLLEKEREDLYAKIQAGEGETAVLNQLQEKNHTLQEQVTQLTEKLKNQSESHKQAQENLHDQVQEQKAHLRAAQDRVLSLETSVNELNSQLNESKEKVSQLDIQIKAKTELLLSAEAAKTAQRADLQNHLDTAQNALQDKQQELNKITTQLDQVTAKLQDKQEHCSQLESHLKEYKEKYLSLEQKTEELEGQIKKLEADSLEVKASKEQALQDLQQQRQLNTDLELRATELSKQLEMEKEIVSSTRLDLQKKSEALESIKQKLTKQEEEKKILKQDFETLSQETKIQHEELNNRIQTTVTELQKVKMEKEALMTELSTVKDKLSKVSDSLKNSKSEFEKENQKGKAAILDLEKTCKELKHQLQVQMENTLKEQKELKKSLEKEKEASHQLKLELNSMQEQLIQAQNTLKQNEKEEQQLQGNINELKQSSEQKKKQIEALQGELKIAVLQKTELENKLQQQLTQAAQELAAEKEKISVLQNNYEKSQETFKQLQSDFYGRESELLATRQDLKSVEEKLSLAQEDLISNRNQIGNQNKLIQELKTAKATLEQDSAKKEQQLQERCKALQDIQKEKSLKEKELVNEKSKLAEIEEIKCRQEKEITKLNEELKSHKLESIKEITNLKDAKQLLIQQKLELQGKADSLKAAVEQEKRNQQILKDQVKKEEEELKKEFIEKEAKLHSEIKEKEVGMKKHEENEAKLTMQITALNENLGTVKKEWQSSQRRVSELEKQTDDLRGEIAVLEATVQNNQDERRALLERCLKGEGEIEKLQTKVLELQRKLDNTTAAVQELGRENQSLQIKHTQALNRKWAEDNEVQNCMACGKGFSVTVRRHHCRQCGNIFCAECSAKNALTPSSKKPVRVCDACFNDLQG

Variant	effect of a mutation on the interaction
G540E	disrupting interaction

Variants of: B1
Conditions: with rab5a_human RAB5A
Remark: another data set of the same source

Variant	effect of a mutation on the interaction
C157Y	increasing interaction

Variants of: B1
Conditions: with eea1_human EEA1, Q15075
Remark: another data set of the same source

Variant	effect of a mutation on the interaction
C157Y	disrupting interaction

Variants of: B1
Conditions: with eea1_human EEA1, Q15075
Remark: another data set of the same source

Variant	effect of a mutation on the interaction
P1603A	disrupting interaction
